The test system of this data set is MS2 coat protein. The data set can be described thus: apparent KD of MS2 coat protein; designed switch direction (-1 OFF switch, 1 ON switch): -1; higher = weaker reporter binding. A digest of the protocol: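 SNAP-549-labelled MS2 coat protein was titrated, doubling from 0.7 or 1.5 nM to 3 µM, over designed RNA switches transcribed on Illumina chips by stalled E. coli RNA polymerase. Runs were done without input, with 200 uM small-molecule ligand, or with an oligonucleotide input. Apparent KD is the per-design median over clusters of curve-fitted normalised fluorescence.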

Setting [1] is: Eterna round: R95, input ligand: microRNA oligo, concentration not stated.
The mark [2] stands for this setting: input ligand: microRNA oligo, concentration not stated.
Where [3] appears, read: Eterna round: R95, input ligand: FMN 200 uM.
The mark [4] stands for this setting: Eterna round: R95, input ligand: none.

Take “AUAUUAAUAUAGGAUAUCGAAUUUAUUAAUUAUCGAGAAGGAUAAACAUGAGGAUCACCCAUGUGGUAUCAUGG [Mat - Exclusion 6 - JL Mod - D39] (puzzle: Exclusion 6)”: the “apparent KD of MS2 coat protein” value under setting [1] came to 256 nM. Take “ACAACCGGAGGAUAUACGUAUUCAUCACUCAACGCGGAACGACAUGAGGAUCACCCAUGUAGAAGGCCGAGAGU [EX2 B.24] (Eterna round: R97, puzzle: Exclusion 2)”: the “apparent KD of MS2 coat protein” value is, setting by setting: (input ligand: FMN 200 uM) 13.5 nM; (input ligand: none) 16 nM. The corresponding values for “ACAAUGUCAGGAUAUGAACAGCGCGGUCACAAGGAUUGCUUUCAGAAGGGACAUGAGGAUCACCCAUGUCGAUA [Eternabot (L1) Solution 91] (Eterna round: R97, puzzle: Exclusion 4)” are 23 nM and 20 nM. The corresponding values for “GGAACGCGAGGAUAUACAAGGCCGGAAACGGAAAUAGCCUCACAUGAGGAUCACCCAUGUAGAAGGCGCGGAGA [AK-MS2ROC-r4-exclusion2-26] (Eterna round: R97, puzzle: Exclusion 2)” are 175 nM and 22.1 nM. For “GCAGCAUAGUCGGAAACGACAGAACAUGAGGAUCACCCAUGUCAGGAUAUGGUCUGGAUUACAGGCCAGAAGGGACGAAGCUGC [Eli exng3 - 010] (Eterna round: R96, puzzle: Exclusion NG 3)”, the “apparent KD of MS2 coat protein” value runs as follows: (input ligand: FMN 200 uM) 13.5 nM; under setting [2], 11.4 nM; (input ligand: none) 16 nM. On to “UUAUUGUGAGGAUAUCAGGUGUGCUAGCGUACUGGUACAUCUGAGAAGGCACAUGAGGAUCACCCAUGUUCCUU [JL-ex4-3.26 Brourd mod] (puzzle: Exclusion 4)”, for which the “apparent KD of MS2 coat protein” value under setting [1] turned out to be 14.4 nM. “GCUGGUCGAGGAUAUACAUAACGUGCUUCGGCACGAGAUCUACAUGAGGAUCACCCAUGUAGAAGGCGACCAGC [E2/10-A1] (Eterna round: R97, puzzle: Exclusion 2)”: the “apparent KD of MS2 coat protein” value is, setting by setting: (input ligand: FMN 200 uM) 57.8 nM; (input ligand: none) 18 nM. The like results for “AGCCAAGCAGGAUAUGCCCGUAAUAACAUGAGGAUCACCCAUGUGACCGAUUUAUGUUCUGCAGAAGGGCUUGGAA [LRO-Excl5-12-mod of Erxesoan mod by Eli Fisker] (Eterna round: R97, puzzle: Exclusion 5)” were, in that order, 91.3 nM and 24.8 nM.

Turning to “GCGAGCUGAGGAUAUACAUGAGGAUCACCCAUGUAUUUUGGAAGACUGCCUCCUGCACGUAGAAGGCGGCUCUU [Eternabot (L2) Solution 35] (Eterna round: R97, puzzle: Exclusion 3)”, the “apparent KD of MS2 coat protein” value (input ligand: FMN 200 uM) was found to be 24.4 nM and the “apparent KD of MS2 coat protein” value (input ligand: none) came to 24.7 nM. Turning to “AGAUCACAUGAGGAUCACCCAUGUGAGGAUAUGAUACUAUGUACUUCGGUACAUAGUAUCAGAAGGCAUGUGGA [Ex1-3: 75] (puzzle: Exclusion 1)”, the “apparent KD of MS2 coat protein” value under setting [1] amounted to 53.7 nM. On to “AACAGCACAGGAUAUACAUGAGGAUCACCCAUGUGAGAAUUAAGUGGCGUACCACAAAGUAGAAGGGUGCUGGA [Mat - Exclusion 3 - JL mod - D39] (Eterna round: R96, puzzle: Exclusion 3)”, for which, under setting [2], the “apparent KD of MS2 coat protein” value turned out to be 36 nM.

In the case of “GCCGAGUGAGGAUAUACAUGAGGAUCACCCAUGUAAACACGAAAGCAAGUGUCCCUCAGUAGAAGGCGCCUGGA [Aerusesxe] (puzzle: Exclusion 3)”, the “apparent KD of MS2 coat protein” value under setting [1] stood at 14.8 nM.

As to “ACAGGUGCAGGAUAUACAUGAGGAUCACCCAUGUAGAUCAACCAGCGAUAGCUGGAAUGUAGAAGGGCACCUGU [E3/5-D1] (Eterna round: R97, puzzle: Exclusion 3)”, the “apparent KD of MS2 coat protein” value by setting is: (input ligand: FMN 200 uM) 94.4 nM; (input ligand: none) 18.5 nM. The corresponding values for “GCAAGCUUGUCAAGAUCCCACAUGAGGAUCACCCAUGUGCAUCGUCUGAGCCCAUAGCUAGUCAUCUGCGGGUGCGU [Eternabot (Original) Solution 15] (Eterna round: R97, puzzle: Sensor, turn-off variant 1)” are 40.3 nM and 44.7 nM.

In the case of “AGAUGGCGAGGAUAUACAUGAGGAUCACCCAUGUGAAUAAUAAUAGUGAGGAAGAAAAGUAGAAGGCGCUGUCA [Mat - Exclusion 3 - Mod of Salish D34] (puzzle: Exclusion 3)”, the “apparent KD of MS2 coat protein” value under setting [3] stood at 357 nM, the “apparent KD of MS2 coat protein” value under setting [1] was 42.1 nM and the “apparent KD of MS2 coat protein” value under setting [4] was 41.2 nM. Regarding “AGAUAACAUGAGGAUCACCCAUGUGAGGAUAUUUACCCAAGAGCUUCGGCUCUCAGGUGAAGAAGGCACGUUGA [EX1 #59] (Eterna round: R97, puzzle: Exclusion 1)”, the “apparent KD of MS2 coat protein” value runs as follows: (input ligand: FMN 200 uM) 109 nM; (input ligand: none) 55.4 nM. In the case of “CUUUAGCAAGCGAGAUCCCACAUGAGGAUCACCCAUGUGCAUCCAGAAUUACUGGGUGCAAAAGCUCGUCUUAUAUC [mod-Eli newdang-1b] (Eterna round: R97, puzzle: Sensor, turn-off variant 1)”, the “apparent KD of MS2 coat protein” value (input ligand: FMN 200 uM) worked out at 58.4 nM and the “apparent KD of MS2 coat protein” value (input ligand: none) was 62.6 nM.

Take “ACGACUGGAGGAUAUGCUCUGGGAGCGAUCGUAUAAGCAGUACUUGAGGAUCACCCAAGUAGAAGGUCAGCUCG [Riorus] (Eterna round: R97, puzzle: Exclusion 2)”: the “apparent KD of MS2 coat protein” value by setting is: (input ligand: FMN 200 uM) 140 nM; (input ligand: none) 37.6 nM. As for “UUUUACUCAGGAUAUAUGAUGUGAAACAUGAGGAUCACCCAUGUAAUAUUAUGGAUGUAAAUAGAAGGGAGAUUUA [Mat - Exclusion 5 - JL mod - D16] (puzzle: Exclusion 5)”, the “apparent KD of MS2 coat protein” value was 46.4 nM under setting [3], 45.5 nM under setting [1] and 59.5 nM under setting [4].

With “UCGCUCCGUGUAGGAUAUCGUUGUACUCUGCGGCGAGAAGGACAUGAGGAUCACCCAUGUAUGUUAUUAUCACGCGUGGCGCAA [Design 68] (Eterna round: R96, puzzle: Exclusion NG 1)”, the “apparent KD of MS2 coat protein” value came to 21.5 nM (input ligand: FMN 200 uM), 17 nM under setting [2] and 19 nM (input ligand: none).

Regarding “CCGUCAUCAGGAUAUCCACAUCUCUACAUGAGGAUCACCCAUGUAAGCUUGGGUAAUAGCGGAGAAGGGAUAGACU [Eternabot (Original) Solution 20] (Eterna round: R97, puzzle: Exclusion 5)”, the “apparent KD of MS2 coat protein” value was 78.2 nM (input ligand: FMN 200 uM) and 57.5 nM (input ligand: none). The corresponding values for “CUGAUGUGAGGAUAUCUACGCCAAGUGUUUCACUUGGCGCAAGAGAAGGCACAUGAGGAUCACCCAUGUACUUC [jl-ex4-4.37 ViennaUCT mod] (Eterna round: R97, puzzle: Exclusion 4)” are 137 nM and 22.8 nM. The like results for “UCGCGCCAAGGAUAUACAUGAGGAUCACCCAUGUUGAAAGAAAAGUUGUCCGGUCCCAGUAGAAGGUGGUUCCC [Eternabot (L2) Solution 90] (Eterna round: R97, puzzle: Exclusion 3)” were, in that order, 23.5 nM and 58.4 nM. As to “UAUUUCAUCUAUGGGAGUAACAUGAGGAUCACCCAUGUAUGUCUUGUUUUUUGUUCGUCUAAGACUUUCUGAUCAGU [JR_SV3TOV1_Sub031] (Eterna round: R96, puzzle: Sensor v3, turn-off variant 1)”, the “apparent KD of MS2 coat protein” value runs as follows: (input ligand: FMN 200 uM) 39.4 nM; under setting [2], 43.1 nM; (input ligand: none) 35.6 nM.

“ACCUCACAUGAGGAUCACCCAUGUUAGGAUAUCUCGGUGCCCUGCAGGCAGUGGCACCAGAGAAGGAACGUGCA [Anbearqu] (puzzle: Exclusion 1)”: the “apparent KD of MS2 coat protein” value under setting [1] came to 17.2 nM. For “CUAUGUGAUUAGGAUAUUACUGGGCUAUCGCCUUGAGAAGGAGUUACAUGAGGAUCACCCAUGUCAACGCGACC [Eternabot (L2) Solution 44] (Eterna round: R97, puzzle: Exclusion 6)”, the “apparent KD of MS2 coat protein” value (input ligand: FMN 200 uM) amounted to 17.8 nM and the “apparent KD of MS2 coat protein” value (input ligand: none) is 19.1 nM. On to “CUUAUGUGAGGAUAUCAGUAGUAAUACAAUAGUAUUACUACUGAGAAGGCACAUGAGGAUCACCCAUGUUCUUC [Exclusion 4 - Mod Omei Ex4 344 mod v.2] (puzzle: Exclusion 4)”, for which the “apparent KD of MS2 coat protein” value under setting [1] amounted to 103 nM.

“CUGGUGUGAGGAUAUCAGGACACGUACGCGGGCAUGUCAAAUGAGAAGGCACAUGAGGAUCACCCAUGUGGGAC [Geve] (puzzle: Exclusion 4)”: under setting [1], the “apparent KD of MS2 coat protein” value is 26 nM. On to “GUUUACAAGCUAAGAUCCUACAUGAGGAUCACCCAUGUGGUCCGGUGACGUGAGUCACCGGACUUAGCUCGUCUUGC [salish99_S_TOV1_R5_089] (Eterna round: R97, puzzle: Sensor, turn-off variant 1)”, for which the “apparent KD of MS2 coat protein” value is 36 nM (input ligand: FMN 200 uM) and 37.2 nM (input ligand: none). The like results for “GUCAAACAUGAGGAUCACCCAUGUGAGGAUAUUUAGGAUAGGAUAUGACUACUACUCCGAAGAAGGCACUCGGG [Eternabot (L1) Solution 7] (Eterna round: R97, puzzle: Exclusion 1)” were, in that order, 102 nM and 38.5 nM. As for “CCCGUGUUAGGAUAUAUGGAAGAGCGGACGGGCGCUCCAAGGUAGAAGGAACAUGAGGAUCACCCAUGUAAUAA [Teleerdion] (Eterna round: R97, puzzle: Exclusion 4)”, the “apparent KD of MS2 coat protein” value was found to be 42.6 nM (input ligand: FMN 200 uM) and 28.6 nM (input ligand: none).

Turning to “ACAACUGUUCCCAAGCUUUACAUGAGGAUCACCCAUGUUCGUCAAGAUUUGUACCAUCUAACGUAUGGCUCAAGUAC [Eternabot (L1) Solution 48] (Eterna round: R97, puzzle: Sensor, turn-off variant 1)”, the “apparent KD of MS2 coat protein” value runs as follows: (input ligand: FMN 200 uM) 23 nM; (input ligand: none) 24.6 nM.

The values above are taken from the supplement of paper PMC9170038.
